Holding throughout (assay type): biochemical
Series [1] addresses T1, Proteinase 3 (Homo sapiens, UniProt P24158).
T1 sequence (P24158 28-248): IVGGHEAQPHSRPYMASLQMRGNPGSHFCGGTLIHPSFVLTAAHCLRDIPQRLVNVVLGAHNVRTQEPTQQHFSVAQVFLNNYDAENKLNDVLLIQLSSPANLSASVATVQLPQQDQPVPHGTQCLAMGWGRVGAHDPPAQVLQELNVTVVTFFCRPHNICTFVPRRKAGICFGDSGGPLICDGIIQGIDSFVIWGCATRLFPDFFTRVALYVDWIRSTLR
Kind of series: Protease inhibition assay, second order rate constant kobs/[I] (method of Tian and Tsou). The settings on record: for effect of P5 group on kobs/I: ammonium, Trp or Ile at P5; for kobs/I range: PR3. The procedure: The compounds of the invention are advantageously selective inhibitors of PR3. […] As described under the Examples below (see PR3 inhibition assay), and as is generally known, efficacy of particular inhibitors against a target protease, for example, recombinant human PR3, is determined by combining the target with a substrate (for example Suc-AanV-SBzI), both in the absence of the inhibitor and in the present of different concentrations of such inhibitor to be tested. Typically, the efficacy of irreversible inhibitors are measured in terms of the second order rate constant of inhibition value (11) or kobs/l. Preferred inhibitors of the invention have typically a kobs/I of more than 10 M^−1s^−1, preferably more than 100 M^−1s^−1, and more preferably of more than […].
(§1) The inactivation of proteases by substrate analog inhibitors in the presence of the substrate by competition for the enzyme-binding site, was measured by the method of Tian and Tsou (17). In this system, product formation in the presence of an irreversible inhibitor approaches an asymptote, as described by
(§2) log([P∞]−[P])=log [P∞]−0.43A[Y]t
(§3) where [P∞] is the concentration of product formed at time approaching infinity, [P] is the concentration of product at time t, [Y] is the inhibitor concentration, and A is the apparent inhibition rate constant in the presence of the substrate. A is given by
(§4) where k+0 is the rate constant for association of the inhibitor with the enzyme, K^−1 is the inverted Michaelis constant, and [S] the substrate concentration. The apparent inhibition rate constant A is the slope of a plot of log([P∞]−[P]) against t, to give the second-order rate constant of inhibition k+0

Series [2] deals with T2, Elastase (Homo sapiens, UniProt P08246).
T2 sequence (P08246 30-267): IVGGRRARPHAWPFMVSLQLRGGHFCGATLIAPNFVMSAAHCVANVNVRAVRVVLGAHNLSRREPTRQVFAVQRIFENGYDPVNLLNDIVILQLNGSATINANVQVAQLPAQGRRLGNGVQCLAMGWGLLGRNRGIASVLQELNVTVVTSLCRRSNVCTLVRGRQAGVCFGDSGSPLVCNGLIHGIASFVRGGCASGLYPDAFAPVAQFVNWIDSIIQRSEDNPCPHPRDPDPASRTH
Described as above. The note with it: n.s where no significant inhibition. The protocol:
as §1, §2, §3, §4

Series [3] addresses T3, HNE (Homo sapiens, UniProt P08246).
T3 sequence (P08246 30-267): T2 sequence (P08246 30-267)
Put plainly: Hydrolysis of paranitroanilide substrates, kcat/KM. The procedure:
(§5) Then we used the peptidyl sequences DYDA- and PYDA- to construct two paranitroanlide substrates bearing this sequence from P4 to P1. Ac-DYDA-pNA and Ac-PYDA-pNA were assayed with purified PR3 and HNE and the specificity constants kcat/Km were determined. […] We then constructed phosphonate inhibitors with the same peptidyl sequence i.e. Ac-DYDA^P(Oph-p-Cl)2 and Ac-PYDA^P(Oph-p-Cl)2.

Series [4] has as its target T4, wtPR3 (Homo sapiens, UniProt P24158).
T4 sequence (P24158 28-248): T1 sequence (P24158 28-248)
Put plainly: Hydrolysis of paranitroanilide substrates, kcat/KM. The procedure:
as §5

Where no end group is shown, it is not given here. [ ]: non-standard residue; d: D form. The star is where a group is joined. pNA = O=[N+]([O-])c1ccc(N*)cc1; AlaP = not defined here; Ahx = NCCCCCC(=O)O; pentyl = CCCCC*

“Ac-Pro-Tyr-Phe-Ala^P(O—C6H4-4-Cl)2 (Ac-PYF[AlaP]; not fully specified (C-terminus); printed as Ac-Pro-Tyr-Phe-Ala^{P}(O—C₆H₄-4-Cl)₂; reading uncertain; also: C-terminal Ala as phosphonate analogue (Ala^P)) [Compound 7]”: the “Proteinase 3 kobs/[I]” value in series [1] was 2.1 ± 0.2 M⁻¹ s⁻¹. Moreover, the “Elastase kobs/[I]” value in series [2] is “n.s”.

“Biotin-Asp-Tyr-Asp-Ala^P(O—C6H4-4-Cl)2 [Compound 3]”: the “Proteinase 3 kobs/[I]” value in series [1] was 18 ± 2.8 M⁻¹ s⁻¹. Also, in series [2], the “Elastase kobs/[I]” value is reported as “n.s”.

Consider Ac-DYDA-pNA, for which the “cleavage by purified HNE” value in series [3] is recorded as “did not cleave”. In series [4], the “cleavage by purified PR3” value is “rapidly cleaved”.

Consider “Biotin-Pro-Tyr-Asp-Avl^P(O—C6H4-4-Cl)2 [Compound 5]”, for which the “Proteinase 3 kobs/[I]” value in series [1] amounted to 33360 ± 4150 M⁻¹ s⁻¹. In series [2], the “Elastase kobs/[I]” value is listed as “n.s”.

As to “Ac-Trp-Pro-Tyr-Asp-Ala^P(O—C6H4-4-Cl)2 (Ac-WPYD[AlaP]; not fully specified (C-terminus); printed as Ac-Trp-Pro-Tyr-Asp-Ala^{P}(O—C₆H₄-4-Cl)₂; reading uncertain; also: C-terminal Ala as phosphonate analogue (Ala^P)) [Compound 11]”, in series [1], the “Proteinase 3 kobs/[I]” value was 15 ± 0.1 M⁻¹ s⁻¹ and the “effect of P5 group on kobs/I” value is “did not significantly increase”. In addition, the “Elastase kobs/[I]” value in series [2] is reported as “n.s”.

With Ac-PYDA-pNA, the “cleavage by purified HNE” value in series [3] was “did not cleave”. Moreover, the “cleavage by purified PR3” value in series [4] is “rapidly cleaved”.

Take “CH3(CH2)4-Pro-Tyr-Asp-Ala^P(O—C6H4-4-Cl)2 (pentyl-PYD[AlaP]; not fully specified (C-terminus); printed as CH3(CH2)4-Pro-Tyr-Asp-Ala^P(O—C6H4-4-Cl)2; reading uncertain; also: C-terminal Ala as phosphonate analogue (Ala^P)) [Compound 8]”: in series [1], the “Proteinase 3 kobs/[I]” value was found to be 4418 ± 329 M⁻¹ s⁻¹ and the “kobs/I range” value was ~10^3 M^−1s^−1. The “Elastase kobs/[I]” value in series [2] is reported as “n.s”.

“^+H2N-Pro-Tyr-Asp-Ala^P(O—C6H4-4-Cl)2 (H-PYD[AlaP]; not fully specified (C-terminus); printed as ^+H2N-Pro-Tyr-Asp-Ala^P(O—C6H4-4-Cl)2; reading uncertain; also: C-terminal Ala as phosphonate analogue (Ala^P)) [Compound 10]”: in series [1], the “Proteinase 3 kobs/[I]” value is 4.7 ± 0.5 M⁻¹ s⁻¹ and the “effect of P5 group on kobs/I” value was “did not significantly increase”. Also, the “Elastase kobs/[I]” value in series [2] is on record as “n.s”.

Consider “Ac-Ile-Pro-Tyr-Asp-Ala^P(O—C6H4-4-Cl)2 (Ac-IPYD[AlaP]; not fully specified (C-terminus); printed as Ac-Ile-Pro-Tyr-Asp-Ala^{P}(O—C₆H₄-4-Cl)₂; reading uncertain; also: C-terminal Ala as phosphonate analogue (Ala^P)) [Compound 12]”, for which, in series [1], the “Proteinase 3 kobs/[I]” value is 46 ± 0.1 M⁻¹ s⁻¹ and the “effect of P5 group on kobs/I” value is reported as “did not significantly increase”. In series [2], the “Elastase kobs/[I]” value was determined as 15.1 ± 1.6 M⁻¹ s⁻¹.

Take “Ac-Ahx-Pro-Tyr-Asp-Ala^P(O—C6H4-4-Cl)2 ({Ac-Ahx}-PYD[AlaP]; not fully specified (C-terminus); printed as Ac-Ahx-Pro-Tyr-Asp-Ala^P(O—C6H4-4-Cl)2; reading uncertain; also: C-terminal Ala as phosphonate analogue (Ala^P)) [Compound 9]”: in series [1], the “Proteinase 3 kobs/[I]” value is 2159 ± 235 M⁻¹ s⁻¹ and the “kobs/I range” value was ~10^3 M^−1s^−1. Further, the “Elastase kobs/[I]” value in series [2] is recorded as “n.s”.

In the case of “Biotin-PEG3000-Pro-Tyr-Asp-Ala^P(O—C6H4-4-Cl)2 [Compound 13]”, the “Proteinase 3 kobs/[I]” value in series [1] was 1163 ± 0.1 M⁻¹ s⁻¹. Besides, in series [2], the “Elastase kobs/[I]” value was 46.5 M⁻¹ s⁻¹.

Take “Biotin-Val-Tyr-Asp-Ala^P(O—C6H4-4-Cl)2 [Compound 6]”: in series [1], the “Proteinase 3 kobs/[I]” value was 17396 ± 835 M⁻¹ s⁻¹. Besides, the “Elastase kobs/[I]” value in series [2] was “n.s”.
